First the molecules themselves.
B1: EhCaBP1 (calcium binding protein 1), recombinant (natural protein, E. histolytica, UniProt P38505 1-134, looked up)
chain: MAEALFKEIDVNGDGAVSYEEVKAFVSKKRAIKNEQLLQLIFKSIDADGNGEIDQNEFAKFYGSIQGQDLSDDKIGLKVLYKLMDVDGDGKLTKEEVTSFFKKHGIEKVAEQVMKADANGDGYITLEEFLEFSL

In experiment [1] the target is B1. In words: BLI. In general terms: BLI is a label-free optical method that tracks binding on a fibre tip over time.
The target in experiment [2] is T1, EhPHDK (PH domain containing protein kinase), full-length recombinant protein (E. histolytica, UniProt C4M4G9 1-433).
T1 sequence (looked up): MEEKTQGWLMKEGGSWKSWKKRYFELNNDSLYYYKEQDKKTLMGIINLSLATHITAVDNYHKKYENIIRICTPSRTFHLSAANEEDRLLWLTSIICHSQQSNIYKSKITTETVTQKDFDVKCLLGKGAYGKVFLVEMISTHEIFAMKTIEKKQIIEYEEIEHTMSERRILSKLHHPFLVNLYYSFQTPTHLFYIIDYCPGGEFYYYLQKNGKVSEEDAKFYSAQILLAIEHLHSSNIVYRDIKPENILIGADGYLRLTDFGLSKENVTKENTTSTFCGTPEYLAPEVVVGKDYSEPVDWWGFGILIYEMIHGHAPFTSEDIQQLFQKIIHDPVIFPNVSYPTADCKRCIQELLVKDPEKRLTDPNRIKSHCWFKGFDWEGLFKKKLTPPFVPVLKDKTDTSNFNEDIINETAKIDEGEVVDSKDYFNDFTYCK
In words: BLI.

By Kd is commonly meant the free concentration of one partner at which half of the binding sites on the other are occupied at equilibrium, for simple one-to-one binding.

For IYKSKITTETVTQKD [EhPHDK Peptide 2 (hinge region, IQ motif-like sequence)], the Kd in experiment [1] is 243 µM.
With B1, the dissociation constant Kd in experiment [2] worked out at 32 µM.

Values taken from article doi:10.1101/2025.10.24.684426 (bioRxiv, 2025).
